Paper PMC11429872 (bioRxiv, 2024)
Where a chain is given by its changes, count along the chain named. Names and notes keep the numbering of the source.

B1: β-III-spectrin-FLAG fragment (amino acids 1-1066), wild-type (domain or fragment)
chain: MSSTLSPTDFDSLEIQGQYSDINNRWDLPDSDWDNDSSSARLFERSRIKALADEREAVQKKTFTKWVNSHLARVTCRVGDLYSDLRDGRNLLRLLEVLSGEILPKPTKGRMRIHCLENVDKALQFLKEQKVHLENMGSHDIVDGNHRLTLGLVWTIILRFQIQDISVETEDNKEKKSAKDALLLWCQMKTAGYPNVNVHNFTTSWRDGLAFNAIVHKHRPDLLDFESLKKCNAHYNLQNAFNLAEKELGLTKLLDPEDVNVDQPDEKSIITYVATYYHYFSKMKALAVEGKRIGKVLDHAMEAERLVEKYESLASELLQWIEQTIVTLNDRQLANSLSGVQNQLQSFNSYRTVEKPPKFTEKGNLEVLLFTIQSKLRANNQKVYTPREGRLISDINKAWERLEKAEHERELALRTELIRQEKLEQLAARFDRKAAMRETWLSENQRLVSQDNFGLELAAVEAAVRKHEAIETDIVAYSGRVQAVDAVAAELAAERYHDIKRIAARQHNVARLWDFLRQMVAARRERLLLNLELQKVFQDLLYLMDWMEEMKGRLQSQDLGRHLAGVEDLLQLHELVEADIAVQAERVRAVSASALRFCNPGKEYRPCDPQLVSERVAKLEQSYEALCELAAARRARLEESRRLWRFLWEVGEAEAWVREQQHLLASADTGRDLTGALRLLNKHTALRGEMSGRLGPLKLTLEQGQQLVAEGHPGASQASARAAELQAQWERLEALAEERAQRLAQAASLYQFQADANDMEAWLVDALRLVSSPELGHDEFSTQALARQHRALEEEIRSHRPTLDALREQAAALPPTLSRTPEVQSRVPTLERHYEELQARAGERARALEAALALYTMLSEAGACGLWVEEKEQWLNGLALPERLEDLEVVQQRFETLEPEMNTLAAQITAVNDIAEQLLKANPPGKDRIVNTQEQLNHRWQQFRRLADGKKAALTSALSIQNYHLECTETQAWMREKTKVIESTQGLGNDLAGVLALQRKLAGTERDLEAIAARVGELTREANALAAGHPAQAVAINARLREVQTGWEDLRATMRRREESLGEARR
B2: β-III-spectrin-FLAG fragment (amino acids 1-1066), R480W (domain or fragment)
chain: B1 chain with R480W

Biological target: F-actin (rabbit, UniProt P68135 1-377)
Test: co-sedimentation

| Kd [µM] | Binder |
| --- | --- |
| 24.6 ± 12 | B1 |
| 34.9 ± 14.4 | B2 |
